The record followed here is article PMC2819980.

Substrate in the data set: NCCCP(=O)(O)OP(=O)(O)OC[C@H]1O[C@@H](n2ccc(N)nc2=O)[C@H](O)[C@@H]1O
As to the kind of experiment: steady-state kinetics. In kind it is biochemical, Streptomyces rubellomurinus.

B1: FrbG (Streptomyces rubellomurinus) (protein)
chain: MTHYATVICGGGPAGVSAVVAAAVQGRLEEFLDRGVLLVEATGRAGSGSIPHYGIRANSLGSAFLECLDGPAGSGLLAGLADSAEARELRGWADEYPPLPVVGAFLTLVGERVVDALRRHPRCDALLGHRVVEVRTGPERATVLLSGPDGELSHTGDRVLLTMGGRERTELAPDALAALVERRPGLRVLSSGEVITDPSWHPDAASPHRALGSIAVLGGAHSAWAVAAHLARLARAGWFAGPVEVTVVERRLPPIFYFSAAEARAEGYRWDEADVCGPSGRVHRFGGLRGPARELARQVMGLAAEKAPDGFGQVVLDGPWTAEALEAAVGDADLVITALGYDARLPRLLGADGRELELARPRGAVDTGRDGLPGLAAGGRAERLVMYGLGAGLVPSEETGGEPGYRGRLDGVWVYQHDIGAVILRALLANDRTEDGR
Turning to B1, the Km worked out at 15.1 ± 1.5 µM, the turnover number (kcat) turned out to be 0.0987 ± 0.00633 s⁻¹ and the kcat/Km came to 6520 M⁻¹ s⁻¹.

By Km is commonly meant the substrate concentration at which the rate is half of its maximum. One may read the kcat as the maximal rate divided by the concentration of active sites. What is called kcat/Km is the turnover number divided by the Michaelis constant.
